Reference: article PMC4826270
pKd: −log10 of the molar value.

What follows are substances tested against SecA* (SecA795C labelled with 5-iodoacetamidofluorescein) (UniProt P10408) (assay: other fluorescence titration; SecYEG variant in detergent titrated into 10 nM fluorescein-labelled SecA*; quenching read at 522 nm; 20 mM Tris pH 8, 130 mM NaCl, 10% glycerol, 0.02% DDM, 2 mM MgCl2, 1 mM AMP-PNP; fitted to a tight binding equation).
“SecY_(prlA4-EDP)EG (SecY_(F286Y,I408N,R357E,P358D,G359P)EG) (from UniProt P0AGA2 1-443; P0AG96 1-127; P0AG99 1-110) (complex)” gave a pKd of 7.38.
“SecY_(prlA4)EG (SecY_(F286Y/I408N)EG) (from UniProt P0AGA2 1-443; P0AG96 1-127; P0AG99 1-110) (complex)” was tested, and the pKd was 7.44.
Substance “SecYEDPEG (SecY_(R357E/P358D/G359P)EG) (from UniProt P0AGA2 1-443; P0AG96 1-127; P0AG99 1-110) (complex)” has a pKd of 6.87.
